The target of data set [1] is His161 (UniProt position 161, …). Put plainly: NMR. Particulars: 50 mM NaCl; 20 mM Tris acetate; free Thr171-phosphorylated peptide, no RNA.
The target in data set [2] is His168 (UniProt position 168, …). As to the kind of experiment: NMR. Particulars: 50 mM NaCl; 20 mM Tris acetate; free Thr171-phosphorylated peptide, no RNA.

In general, pKa refers to the pH at which an ionisable group is half protonated.

For HLRQPGIHPKTPNKFKKYSR, the pKa is 6.4 in data set [1] and 5.6 in data set [2].

These data come from paper PMC3328597.
